Measured values from PMC6888877, “Deconstructing and repurposing the light-regulated interplay between Arabidopsis phytochromes and interacting factors” (Communications Biology, 2019).

Assays:
P6.A-EYFP = biological target: T1, P6.A-EYFP (Arabidopsis thaliana); test: cell-based or functional assay
T1 chain: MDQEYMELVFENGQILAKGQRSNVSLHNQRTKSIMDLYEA

[1] = biological target: T2, AtPIF3 (1-100)-EYFP, P3.100 (Arabidopsis thaliana, UniProt O80536 1-100); test: cell-based or functional assay
T2 sequence (looked up): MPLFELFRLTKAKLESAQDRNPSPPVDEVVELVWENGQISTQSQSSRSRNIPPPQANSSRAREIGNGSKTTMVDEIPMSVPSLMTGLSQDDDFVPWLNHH

[2] = biological target: T3, AtPIF6 (1-100)-EYFP, P6.100 (Arabidopsis thaliana, UniProt Q8L5W7 1-100); test: cell-based or functional assay
T3 sequence (looked up): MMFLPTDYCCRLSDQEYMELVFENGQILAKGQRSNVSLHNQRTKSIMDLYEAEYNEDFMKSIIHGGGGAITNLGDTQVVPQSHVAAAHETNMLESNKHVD

P6.AAfus-EYFP = biological target: T4, P6.AAfus-EYFP (Arabidopsis thaliana); test: SEC; 50 µM AtPhyB PCM + 10 µM AtPIF-EYFP (5:1), illuminated with red light (650 nm, 2 min; results say 640 nm), Pfr state; Superdex 200 Increase 10/300 GL; 67 mM sodium phosphate pH 8.0, 200 mM NaCl; settings: both partners purified
T4 chain: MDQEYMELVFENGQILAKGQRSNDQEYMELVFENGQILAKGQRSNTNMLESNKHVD

P6.fus-EYFP = biological target: T5, P6.fus-EYFP (Arabidopsis thaliana); test: as above; settings: both partners purified
T5 chain: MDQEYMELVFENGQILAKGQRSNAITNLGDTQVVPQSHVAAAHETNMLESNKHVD

P6.AA-EYFP = biological target: T6, P6.AA-EYFP (Arabidopsis thaliana); test: as above; settings: both partners purified
T6 chain: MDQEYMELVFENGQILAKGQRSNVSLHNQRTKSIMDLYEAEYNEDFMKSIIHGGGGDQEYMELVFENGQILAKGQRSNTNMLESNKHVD

normalized SEAP reporter expression in CHO-K1 cells, split transcription factor (AtPhyB PCM-VP16 + E-protein-AtPIF variant), red light against darkness (P6.A-EYFP): 43 fold | normalized SEAP reporter expression in CHO-K1 cells, split transcription factor (AtPhyB PCM-VP16 + E-protein-AtPIF variant), red light against darkness [1]: 10 fold | normalized SEAP reporter expression in CHO-K1 cells, split transcription factor (AtPhyB PCM-VP16 + E-protein-AtPIF variant), red light against darkness [2]: 4 fold | stoichiometry N (P6.AAfus-EYFP): 1 | stoichiometry N (P6.fus-EYFP): 1 | stoichiometry N (P6.AA-EYFP): 1
B1: Arabidopsis thaliana phytochrome B photosensory core module (AtPhyB PCM) (domain or fragment, UniProt P14713 1-651, looked up)
chain: MVSGVGGSGGGRGGGRGGEEEPSSSHTPNNRRGGEQAQSSGTKSLRPRSNTESMSKAIQQYTVDARLHAVFEQSGESGKSFDYSQSLKTTTYGSSVPEQQITAYLSRIQRGGYIQPFGCMIAVDESSFRIIGYSENAREMLGIMPQSVPTLEKPEILAMGTDVRSLFTSSSSILLERAFVAREITLLNPVWIHSKNTGKPFYAILHRIDVGVVIDLEPARTEDPALSIAGAVQSQKLAVRAISQLQALPGGDIKLLCDTVVESVRDLTGYDRVMVYKFHEDEHGEVVAESKRDDLEPYIGLHYPATDIPQASRFLFKQNRVRMIVDCNATPVLVVQDDRLTQSMCLVGSTLRAPHGCHSQYMANMGSIASLAMAVIINGNEDDGSNVASGRSSMRLWGLVVCHHTSSRCIPFPLRYACEFLMQAFGLQLNMELQLALQMSEKRVLRTQTLLCDMLLRDSPAGIVTQSPSIMDLVKCDGAAFLYHGKYYPLGVAPSEVQIKDVVEWLLANHADSTGLSTDSLGDAGYPGAAALGDAVCGMAVAYITKRDFLFWFRSHTAKEIKWGGAKHHPEDKDDGQRMHPRSSFQAFLEVVKSRSQPWETAEMDAIHSLQLILRDSFKESEAAMNSKVVDGVVQPCRDMAGEQGIDELGA
modifications: covalently incorporated bilin chromophore (PCB; co-expressed Synechocystis sp. heme oxygenase 1 and pcyA)
notes: A. thaliana phytochrome B, photosensory core module (PAS-GAF-PHY with N-terminal extension), residues 1-651; Pr state (far-red light or dark) and Pfr state (red light; Pfr/Pr about 0.56/0.44) are told apart by the assays; In the cell experiments other constructs were used (PCM-VP16; PCM 1-650 with CAAX); source: E. coli BL21(DE3), plasmid pDG282, purified (Ni-NTA IMAC, anion exchange)
